Reference: patent US12065466B2, “Methods and compositions for protein sequencing” (Quantum-Si Incorporated, priority 2020, dated 2024)

B1: PS404: ClpS protein, SEQ ID NO: 27 (protein)
chain: MPVSVTAPQTKTKTKPKVERPKLYKVILVNDDFTPREFVVRVLKAEFRMSEDQAAKVMMTAHQRGVCVVAVFTRDVAETKATRATDAGRAKGYPLLFTTEPEE
B2: PS409: ClpS protein, SEQ ID NO: 32 (protein)
chain: MPARLTDIEGEPNTDPVEDVLLADPELKKPQMYAVVMYNDDYTPMEFVVDVLQNHFKHTLDSAISIMLAIHQQGKGIAGIYPKDIAETKAQTVNRKARQAGYPLLSQIEPQG
B3: PS410: ClpS protein, SEQ ID NO: 33 (protein)
chain: MGDDDQSSREGEGDVAFQTADPELKRPSLYRVVLLNDDYTPMEFVVHILEQFFAMNREKATQVMLAVHTQGKGVCGVYTKDIAETKAALVNDYSRENQHPLLCEVEELDDESR
B4: PS416: ClpS protein, SEQ ID NO: 39 (protein)
chain: MTSQTDTLVKPNIQPPSLFKVIYINDSVTTMEFVVESLMSVFNHSADEATRLTQLVHEEGAAVVAILPYELAEQKGMEVTLLARNNGFPLAIRLEPAV
B5: PS397: ClpS protein, SEQ ID NO: 25 (protein)
chain: MSDNEVAPKRKTRVKPKLERPRLYKVILVNDDYTPRDFVVMVLKAIFRMSEEAGYRVMMTAHKLGTSVVVVCARDIAETKAKEATDLGKEAGFPLMFTTEPEE
B6: PS408: ClpS protein, SEQ ID NO: 31 (protein)
chain: MTDPPSKGREDVDLATRTKPKTQRPPLYKVLLLNDDFTPMEFVVHILERLFGMTHAQAIEIMLTVHRKGVAVVGVFSHEIAETKVAQVMELARRQQHPLQCTMEKE
B7: PS396: ClpS protein, SEQ ID NO: 24 (protein)
chain: MSDNDVALKPKIKSKPKLERPKLYKVILVNDDFTPREFVIAVLKMVFRMSEETGYRVMLTAHRLGTSVVVVCARDIAETKAKEAVDFGKEAGFPLMFTTEPEE
B8: PS417: ClpS protein, SEQ ID NO: 40 (protein)
chain: MSNLDTDVLIDEKVKVVTTEPEKYRVILLNDDVTPMDFVINILVSIFKHSTDTAKDLTLKIHKEGSAIVGVYTYEIAEQKGIEATNESRQHGFPLQVKIERENTL
B9: PS415: ClpS protein, SEQ ID NO: 38 (protein)
chain: MALPETRTKIKPDVNIKEPPNYRVIYLNDDKTSMEFVIGSLMQHFSYPQQQAVEKTEEVHEHGSSTVAVLPYEMAEQKGIEVTLDARAEGFPLQVKIEPAER
B10: PS405: ClpS protein, SEQ ID NO: 28 (protein)
chain: MVSIGAATVACAEGRPIFSGYFDWLAAMPETVTVPRTRLRPKTERPKLHKVILVNDDYTPREFVVTVLKGEFHMSEDQAQRVMITAHRRGVCVVAVFTKDVAETKATRASDAGRAKGYPLQFTTEPEE
B11: PS414: ClpS protein, SEQ ID NO: 37 (protein)
chain: MQAAGNEPPDPQNPGDVGNGGDGGNQDGSNTGVVVKTRTRTRKPAMYKVLMLNDDYTPMEFVVHVLERFFQKNREEATRIMLHVHRRGVGVCGVYTYEVAETKVTQVMDLARQNQHPLQCTIEKE
B12: PS418: ClpS protein, SEQ ID NO: 41 (protein)
chain: MSDHNIDHDTSVAVHLDVVVREPPMYRVVLLNDDFTPMEFVVELLMHFFRKTAEQATQIMLNIHHEGVGVCGTYPREIAETKVAQVHQHARTNGHPLKCRMEPS
B13: PS407: ClpS protein, SEQ ID NO: 30 (protein)
chain: MPSNKRQMCLSDIKNSFNESGIVDWHISPRLANEPSEEGDSDLAVQTVPPELKRPPLYAVVLLNDDYTPMEFVIEILQQYFAMNLDQATQVMLTVHYEGKGVAGVYPRDIAETKANQVNNYARSQGHPLLCQIEPKD
B14: PS411: ClpS protein, SEQ ID NO: 34 (protein)
chain: MTRPDAPEYDDDLAVEPAEPELARPPLYKVVLHNDDFTPMEFVVEVLQEFFNMDSEQAVQVMLAVHTQGKATCGIFTRDIAETKSYQVNEYARECEHPLMCDIEAAD
B15: PS406: ClpS protein, SEQ ID NO: 29 (protein)
chain: MPDATTTPRTKTLTRTARPPLHKVILVNDDFTPREFVVRLLKAEFRTTGDEAQRIMITAHMKGSCVVAVFTREIAESKATRATETARAEGFPLLFTTEPEE
B16: PS412: ClpS protein, SEQ ID NO: 35 (protein)
chain: MATKREGSTLLEPTAAKVKPPPLYKVLLLNDDYTPMEFVVLVLKKFFGIDQERATQIMLKVHTEGVGVCGVYPRDIAHTKVEQVVDFARQHQHPLQCTMEES
B17: PS369: ClpS protein, SEQ ID NO: 2 (protein)
chain: MTSTLRARPARDTDLQHRPYPHYRIIVLDDDVNTFQHVVNCLVTFLPGMTRDQAWAMAQQVDGEGSAVVWTGPQEQAELYHVQLGNHGLTMAPLEPV
B18: PS398: ClpS protein, SEQ ID NO: 26 (protein)
chain: MPLKAQNRSIVGRRDEWPPPTTQSSSETKSESKRVSDTGADTKRKTKTVPKVEKPRLYKVILVNDDYTPREFVLVVLKAVFRMSEDQGYKVMITAHQKGSCVVAVYTRDIAETKAKEAVDLAKEIGFPLMFRTEPEE
B19: PS413: ClpS protein, SEQ ID NO: 36 (protein)
chain: MMKQCGSYFLIKAVQDFKPLSKHRSDTDVITETKIQVKQPKLYTVIMYNDNYTTMDFVVYVLVEIFQHSIDKAYQLMMQIHESGQAAVALLPYDLAEMKVDEVTALAEQESYPLLTTIEPA
B20: PS370: ClpS protein, SEQ ID NO: 3 (protein)
chain: MFNSLGTVLDPKKSKAKYPEARVIVLDDNFNTFQHVANCLLAIIPRMCEQRAWDLTIKVDKAGSAEVWRGNLEQAELYHEQLFSKGLTMAPIEKT

tested on: amino acid at a terminal position of a polypeptide; test: Amino acid binding preference of recognition proteins (Tables 1 and 2); conditions: Table 1, ClpS proteins; amino acid identity at a terminal position of a polypeptide; inferred from literature and/or demonstrated by the inventors
Source text: It should be appreciated that these sequences and other examples described herein are meant to be non-limiting, and recognition molecules in accordance with the application can include any homologs, variants thereof, or fragments thereof minimally containing domains or subdomains responsible for peptide recognition.

| Molecule | Binding Pref. |
| --- | --- |
| B1 | F, Y, W |
| B2 | F, Y, W, L |
| B3 | F, W, L |
| B4 | F, Y, W, L |
| B5 | F, Y, W |
| B6 | F, Y, W, L |
| B7 | F, W |
| B8 | F, Y, W |
| B9 | F, Y, W |
| B10 | F, Y, W |
| B11 | F, Y, W, L |
| B12 | F, Y, W, L |
| B13 | F, Y, W, L |
| B14 | F, Y, W, L |
| B15 | F, Y, W |
| B16 | F, Y, W, L |
| B17 | F, Y, W, L |
| B18 | F, W |
| B19 | F, Y, W, L |
| B20 | F, L |
